Experimental data taken from patent publication US20200123227A1, “INTERFERON PRODRUG FOR THE TREATMENT OF CANCER” (The Board of Regents of the University of Texas System, published 2020).

Experiments:
[1] = target: cell surface IFNAR1/IFNAR2 heterodimer (RAW-Lucia ISG cells) (Mus musculus (Mouse)) (UniProt P33896)
human R2-SUB (human) = human R2-SUB (human) (UniProt P01563)
IFNa4-Fc = IFNa4-Fc (human); assay: cell-based or functional assay

R2-IFNa4-Fc (from UniProt P07351) (Fc fusion)
IFN activity, luciferase reporter assay in RAW-Lucia ISG cells [1]: > 125 fold

R1-IFNa4-Fc (from UniProt P07351) (Fc fusion)
IFN activity, luciferase reporter assay in RAW-Lucia ISG cells [1]: < 125 fold

rmMMP-9 (from UniProt P41245) (enzyme)
cleavage by rmMMP-9 at 37 C for 0, 0.5, 2 or 6 hours, digests separated on a stain-free gel (human R2-SUB (human)): 100%

B1: Mouse IFNAR2-ECD (receptor)
chain: SLETITPSAFDGYPDEPCTINITIRNSRLILSWELENKSGPPANYTLWYTVMSKDENLTKVKNCSDTTKSSCDVTDKWLEGMESYVVAIVIVHRGDLTVCRCSDYIVPANAPLEPPEFEIVGFTDHINVTMEFPPVTSKIIQEKMKTTPFVIKEQIGDSVRKKHEPKVNNVTGNFTFVLRDLLPKTNYCVSLYFDDDPAIKSPLKCIVLQPGQESGLSESA
IFN activity, luciferase reporter assay in RAW-Lucia ISG cells (IFNa4-Fc): ≥ 125 fold

B2: Mouse IFNAR1-ECD (receptor)
chain: ENLKPPENIDVYIIDDNYTLKWSSHGESMGSVTFSAEYRTKDEAKWLKVPECQHTTTTKCEFSLLDTNVYIKTQFRVRAEEGNSTSSWNEVDPFIPFYTAHMSPPEVRLEAEDKAILVHISPPGQDGNMWALEKPSFSYTIRIWQKSSSDKKTINSTYYVEKIPELLPETTYCLEVKAIHPSLKKHSNYSTVQCISTTVANKMPVPGNLQVDAQGKSYVLKWDYIASADVLFRAQWLPGYSKSSSGSRSDKWKPIPTCANVQTTHCVFSQDTVYTGTFFLHVQASEGNHTSFWSEEKFIDSQKHILPPPPVITVTAMSDTLLVYVNCQDSTCDGLNYEIIFWENTSNTKISMEKDGPEFTLKNLQPLTVYCVQARVLFRALLNKTSNFSEKLCEKTRPGSFST
IFN activity, luciferase reporter assay in RAW-Lucia ISG cells (IFNa4-Fc): ≥ 125 fold
